Laboratory results from PMC4575180 (2015).

Target: T1, syntaxin3 (Rattus norvegicus (Rat), UniProt Q08849)
T1 chain: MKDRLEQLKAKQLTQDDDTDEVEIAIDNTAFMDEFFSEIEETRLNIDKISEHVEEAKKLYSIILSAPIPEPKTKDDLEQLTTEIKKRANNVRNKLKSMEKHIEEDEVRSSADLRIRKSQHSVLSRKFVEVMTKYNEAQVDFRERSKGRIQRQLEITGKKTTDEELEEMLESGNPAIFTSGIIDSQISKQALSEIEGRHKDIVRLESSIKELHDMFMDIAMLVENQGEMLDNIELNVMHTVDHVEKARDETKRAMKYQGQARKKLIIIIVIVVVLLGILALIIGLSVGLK
Assay: pull-down

B1: Munc18c (protein)
chain: MAPPVSERGLKSVVWRKIKTAVFDDCRKEGEWKIMLLDEFTTKLLSSCCKMTDLLEEGITVIENIYKNREPVRQMKALYFISPTPKSVDCFLRDFGSKSEKKYKAAYIYFTDFCPDSLFNKIKASCSKSIRRCKEINISFIPQESQVYTLDVPDAFYYCYSPDPSNASRKEVVMEAMAEQIVTVCATLDENPGVRYKSKPLDNASKLAQLVEKKLEDYYKIDEKGLIKGKTQSQLLIIDRGFDPVSTVLHELTFQAMAYDLLPIENDTYKYKTDGKEKEAVLEEDDDLWVRVRHRHIAVVLEEIPKLMKEISSTKKATEGKTSLSALTQLMKKMPHFRKQISKQVVHLNLAEDCMNKFKLNIEKLCKTEQDLALGTDAEGQRVKDSMLVLLPVLLNKNHDNCDKIRAVLLYIFGINGTTEENLDRLIHNVKIEDDSDMIRNWSHLGVPIVPPSQQAKPLRKDRSAEETFQLSRWTPFIKDIMEDAIDNRLDSKEWPYCSRCPAVWNGSGAVSARQKPRTNYLELDRKNGSRLIIFVIGGITYSEMRCAYEVSQAHKSCEVIIGSTHILTPRKLLDDIKMLNKSKDKVSFKDE
  binding result: no binding
